Measured values published in PMC4564306.

Tests used:
[1] = target: LexA-Rab10 Q68L (mouse) (UniProt P61027); experiment: two-hybrid
[2] = target: LexA-Rab10 wild-type (mouse) (UniProt P61027); experiment: two-hybrid

GAD-Exoc6 CT (from UniProt Q8TAG9-1 384-797) (domain or fragment)
3-aminotriazole concentration that suppresses growth [1]: 1 mM

B1: GAD-Exoc6b CT (domain or fragment)
chain: SDPNLVLDLKNLIVLFADTLQVYGFPVNQLFDMLLEIRDQYSETLLKKWAGIFRNILDSDNYSPIPVTSEEMYKKVVGQFPFQDIELEKQPFPKKFPFSEFVPKVYNQIKEFIYACLKFSEDLHLSSTEVDDMIRKSTNLLLTRTLSNSLQNVIKRKNIGLTELVQIIINTTHLEKSCKYLEEFITNITNVLPETVHTTKLYGTTTFKDARHAAEEEIYTNLNQKIDQFLQLADYDWMTGDLGNKASDYLVDLIAFLRSTFAVFTHLPGKVAQTACMSACKHLATSLMQLLLEAEVRQLTLGALQQFNLDVRECEQFARSGPVPGFQEDTLQLAFIDLRQLLDLFIQWDWSTYLADYGQPNCKYLRVNPVTALTLLEKMKDTSRKNNMFAQFRKNERDKQKLIDTVAKQLRGLI
3-aminotriazole concentration that suppresses growth [1]: 50 mM | 3-aminotriazole concentration that suppresses growth [2]: 1 to 5 mM
